Test results reported in patent publication US20060029603A1 (GlaxoSmithKline, published 2006).

Key:
GST-human NOGO-A56 [1] = biological target: T1, GST-human NOGO-A56 (human, UniProt P08515 1-218 = GST); experiment: SPR (Biacore 3000), GST-human NOGO-A56 on CM5, antibody as analyte; mean (SD) of two experiments
T1 construct: GST-tagged fusion expressed in E. coli BL21 and purified on glutathione-sepharose; coated on ELISA plates or amine-coupled to a CM5 chip; also called hNOGO; recombinant human NOGO
Procedure: (§1) hNOGO (GST-human NOGO-A56) was immobilised to a CM5 chip by primary amine coupling using the Biacore Wizard program designed for targeted immobilisation levels. The CM5 sensor surface was activated by passing a solution of 50 mM N-hydroxy-succinimide (NHS) and 200 mM N-ethyl-N′-dimethylaminopropyl […] (EDC). Then hNOGO in sodium acetate buffer, pH5.0 or pH 4.5, was passed over the chip and immobilised. After immobilisation was complete any still activated esters were blocked by an injection of 1M ethanolamine hydrochloride, pH8.5.
(§2) The anti-NOGO mAbs were diluted down in HBS-EP (10 mM HEPES, pH 7.4, 150 mM NaCl, 3 mM EDTA, and 0.005% P-20 surfactant) and binding studies were carried out at range of defined antibody concentrations. All runs were referenced against a blanked sensor surface (one that had been activated and blocked as described earlier but had no addition of ligand). Analysis of binding was carried out using the BIAevaluation kinetic analysis software version 4.1. Biacore analysis of other antibodies of the invention essentially followed the same protocol as described herein.

GST-human NOGO-A56 [2] = biological target: T1, GST-human NOGO-A56; experiment: SPR (Biacore 3000), GST-human NOGO-A56 on CM5, antibody as analyte; mean (SD) of two experiments; mean (SD) of two separate experiments
Procedure: as §1, §2

T1 sequence (P08515 1-218, tags or fused parts left off): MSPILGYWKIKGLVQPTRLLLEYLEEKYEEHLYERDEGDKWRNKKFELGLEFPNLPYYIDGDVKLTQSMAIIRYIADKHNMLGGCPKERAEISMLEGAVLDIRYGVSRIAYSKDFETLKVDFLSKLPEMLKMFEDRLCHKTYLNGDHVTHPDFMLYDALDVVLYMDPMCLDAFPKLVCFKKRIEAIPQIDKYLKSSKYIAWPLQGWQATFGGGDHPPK

B1: H6Lc (antibody, human IgG1, kappa, V domains shown)
VH: QVQLVQSGAEVKKPGASVKVSCKASGYTFTSYWMHWVRQAPGQGLEWIGNINPSNGGTNYNEKFKSRATMTRDTSTSTAYMELSSLRSEDTAVYYCELGQGYWGQGTLVTVSS
VL: DIVITQDELSNPVTSGESVSISCRSSKSLLYKDGKTYLNWFLQRPGQSPQLLIYLMSTRASGVSDRFSGSGSGTDFTLEISRVKAEDVGVYYCQQLVEYPLTFGAGTKLELKR
notes: Humanised heavy chain H6 paired with chimeric light chain Lc; The pairing is read from the name
Question: How did the koff (GST-human NOGO-A56 [1]) turn out when B1 was run?
Answer: 0.00284 s⁻¹

Question: And the kon (GST-human NOGO-A56 [1])?
Answer: 2.17e+06 M⁻¹ s⁻¹

Question: And the Kd (GST-human NOGO-A56 [2])?
Answer: 2.21 nM
